Results reported in US20090226444A1 (MICROMET, published 2009).
Substitutions are numbered along the chain they refer to.

T1: soluble human CEA antigen (sCEA; Abcam, Ltd, Cambridge UK) (human, UniProt P06731 35-685, limits assumed)
T1 construct: Bought soluble CEA; also called soluble CEA; immobilized CEA antigen
T1 sequence: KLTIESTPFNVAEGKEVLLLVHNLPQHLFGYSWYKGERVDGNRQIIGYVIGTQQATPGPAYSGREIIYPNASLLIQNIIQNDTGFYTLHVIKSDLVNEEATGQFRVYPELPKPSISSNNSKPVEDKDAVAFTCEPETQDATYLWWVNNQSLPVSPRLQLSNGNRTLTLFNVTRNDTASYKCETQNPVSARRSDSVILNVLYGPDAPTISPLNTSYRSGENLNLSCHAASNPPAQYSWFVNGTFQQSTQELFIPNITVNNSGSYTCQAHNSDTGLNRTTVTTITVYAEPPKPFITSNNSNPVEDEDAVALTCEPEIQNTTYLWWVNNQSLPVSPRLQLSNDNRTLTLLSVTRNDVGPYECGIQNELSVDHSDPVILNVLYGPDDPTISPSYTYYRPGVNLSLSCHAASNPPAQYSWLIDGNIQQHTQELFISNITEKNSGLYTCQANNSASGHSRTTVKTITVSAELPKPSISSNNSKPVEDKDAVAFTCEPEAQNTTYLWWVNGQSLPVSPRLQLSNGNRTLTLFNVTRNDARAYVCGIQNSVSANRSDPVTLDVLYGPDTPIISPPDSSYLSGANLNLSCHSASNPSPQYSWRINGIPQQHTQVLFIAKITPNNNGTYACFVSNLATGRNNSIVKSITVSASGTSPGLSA

T2: human CEA (carcinoembryonic antigen-related cell adhesion molecule 5; CEACAM5), membrane-bound on cells (human, UniProt P06731 35-685)
T2 sequence: T1 sequence

B1: murine monoclonal antibody A5B7 (antibody, V domains shown)
VH: EVQLVESGGGLVQPGGSLRLSCATSGFTFTDYYMNWVRQPPGKALEWLGFIGNKANGYTTEYSASVKGRFTISRDKSQSILYLQMNTLRAEDSATYYCTRDRGLRFYFDYWGQGTTVTVSS
VL: DIELTQSPAILSASPGEKVTMTCRASSSVTYIHWYQQKPGSSPKSWIYATSNLASGVPARFSGSGSGTSYSLTISRVEAEDAATYYCQHWSSKPPTFGGGTKLEIK
notes: The parental murine monoclonal; also called mAb A5B7
B2: IgG1 A5, derived from scFv A5 (antibody, V domains shown)
VH: EVQLVESGGGVVQPGRSLRLSCAASGFTLSTYAMHWVRQAPGKGLEWVALISNDGSNKYYADSVKGRFTISRDNSKNTLYLQMNSLRAEDTAVYYCARDRGLRFYFDYWGQGTTVTVSS
VL: QAVLTQPASLSASPGASASLTCTLRRGINVGAYSIYWYQQKPGSPPQYLLRYKSDSDKQQGSGVSSRFSASKDASANAGILLISGLQSEDEADYYCMIWHSGASAVFGGGTKLTVLG
B3: IgG1 B9, derived from scFv B9 (antibody, V domains shown)
VH: EVQLVESGGGLVQPGRSLRLSCAASGFTVSSYWMHWVRQAPGKGLEWVGFIRNKANGGTTEYAASVKGRFTISRDDSKNTLYLQMNSLRAEDTAVYYCARDRGLRFYFDYWGQGTTVTVSS
VL: B2 VL
B4: IgG1 D8, derived from scFv D8 (antibody, V domains shown)
VH: B2 VH with A97T
VL: B2 VL

How the values were obtained:
[1] = target: T1, soluble human CEA antigen (sCEA; Abcam, …); test: not described (own data)
[2] = target: T2, human CEA (carcinoembryonic …); test: cell-based or functional assay
[3] = target: T1, soluble human CEA antigen (sCEA; Abcam, …); test: cell-based or functional assay

| Binder | binding result [1] | ADCC EC50, sCEA 0 ug/ml [2] [ng/mL] | ADCC EC50 in the presence of sCEA 1 ug/ml [2] [ng/mL] | ADCC EC50 in the presence of sCEA 10 ug/ml [2] [ng/mL] | Inhibitory factor (ADCC EC50 with 1 ug/ml sCEA divided by EC50 without sCEA) [3] [fold] | Inhibitory factor (ADCC EC50 with 10 ug/ml sCEA divided by EC50 without sCEA) [3] [fold] |
| --- | --- | --- | --- | --- | --- | --- |
| B1 | binds |  |  |  |  |  |
| B2 |  | 2.7 | 4 | 2.8 | 1.5 | 1 |
| B3 |  | 4.8 | 45.3 | 53.4 | 9.4 | 11.1 |
| B4 |  | 4.4 | 14.7 | 6.3 | 3.3 | 1.4 |
